# Reference: article doi:10.1101/2024.09.16.613335, “Structure-guided assembly of an influenza spike nanobicelle vaccine provides pan H1 intranasal protection” (bioRxiv, 2024)
# Molecular target: the molecule itself
# Assay: cryo-EM structure
protein,measurement,value
hemagglutinin (HA) spike on spiked nanobicelles (SNB) purified from the Fluad vaccine (natural protein) not shown,stoichiometry N,3
